# In patent US20210403579A1 (DELINIA, published 2021):
# Where a chain is given by its changes, count along the chain named.
# T1: Human ST2 (human, UniProt Q01638 19-328, limits assumed)
# T1 construct: also called human ST2 protein; Interleukin 1 receptor-like 1
# T1 sequence (looked up): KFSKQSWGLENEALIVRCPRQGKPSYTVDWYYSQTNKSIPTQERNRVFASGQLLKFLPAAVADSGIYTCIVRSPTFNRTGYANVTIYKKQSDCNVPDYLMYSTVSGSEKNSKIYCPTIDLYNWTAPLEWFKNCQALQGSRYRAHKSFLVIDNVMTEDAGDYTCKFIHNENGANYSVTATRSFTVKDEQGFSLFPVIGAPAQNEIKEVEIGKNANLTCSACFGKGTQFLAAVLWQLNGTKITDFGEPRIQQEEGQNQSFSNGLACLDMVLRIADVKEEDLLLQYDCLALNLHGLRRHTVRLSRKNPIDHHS
# T2: Mouse ST2 (mouse, UniProt P14719 27-332, limits assumed)
# T2 construct: also called mouse ST2 protein
# T2 sequence (looked up): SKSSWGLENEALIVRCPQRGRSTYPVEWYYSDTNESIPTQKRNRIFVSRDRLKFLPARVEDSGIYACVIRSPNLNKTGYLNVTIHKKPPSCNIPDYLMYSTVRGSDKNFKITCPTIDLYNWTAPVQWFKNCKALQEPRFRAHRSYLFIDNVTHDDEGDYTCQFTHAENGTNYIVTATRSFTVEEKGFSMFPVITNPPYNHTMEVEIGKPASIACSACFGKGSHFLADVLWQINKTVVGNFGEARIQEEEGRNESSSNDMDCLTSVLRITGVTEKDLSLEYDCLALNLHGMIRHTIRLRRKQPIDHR
# B1: Human ST2 IgG1 Antibody 92 (antibody, V domains shown)
# VH: QVQLVQSGAEVKKPGSSVKVSCKASGGSFSGQAVNWVRQAPGQGLEWMGGFVSLFGTANYAQKFQGRVTITADESTSTAYMELSSLRSEDTAVYYCARDREGLGWYFDLWGRGTLVTVSS
# VL: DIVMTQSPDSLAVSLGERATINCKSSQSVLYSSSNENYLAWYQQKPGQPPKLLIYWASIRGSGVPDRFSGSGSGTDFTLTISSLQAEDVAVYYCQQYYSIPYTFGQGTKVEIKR
# notes: IgG1; also called ST2 Antibody 92
# B2: Human ST2 IgG1 Antibody 85 (antibody, V domains shown)
# VH: EVQLLESGGGLVQPGGSLRLSCAASGFSFSTYWMHWVRQAPGKGLEWVSGISGGGIYTYYADSVKGRFTISRDNSKNTLYLQMNSLRAEDTAVYYCASMTYGDYYGMDVWGQGTTVTVSS
# VL: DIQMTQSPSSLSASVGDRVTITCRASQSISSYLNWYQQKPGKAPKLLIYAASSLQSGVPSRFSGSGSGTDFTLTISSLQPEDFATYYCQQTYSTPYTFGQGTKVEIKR
# notes: IgG1; also called ST2 Antibody 85
# B3: Human ST2 IgG1 Antibody 84 (antibody, V domains shown)
# VH: QVQLVQSGAEVKKPGSSVKVSCKASGGTFSSYALSWVRQAPGQGLEWMGGIIPIFGTANYAQKFQGRVTITADESTSTAYMELSSLRSEDTAVYYCARAAAAGTAWYFDLWGRGTLVTVSS
# VL: not shown
# notes: IgG1; also called ST2 Antibody 84
# B4: Human ST2 IgG1 Antibody 88 (antibody, V domains shown)
# VH: EVQLLESGGGLVQPGGSLRLSCAASGFTFSSYWMSWVRQAPGKGLEWVSSISSSGGYLYYADSVKGRFTISRDNSKNTLYLQMNSLRAEDTAVYYCARDWGLTPDYWGQGTLVTVSS
# VL: not shown
# notes: IgG1; also called ST2 Antibody 88
# B5: Human ST2 IgG1 Antibody 90 (antibody, V domains shown)
# VH: QVQLVQSGAEVKKPGSSVKVSCKASGYTFSDFSIHWVRQAPGQGLEWMGGMLPISHIAHYARKFQGRVTITADESTSTAYMELSSLRSEDTAVYYCARGGSSGWFEVWGQGTTVTVSS
# VL: DIVMTQSPLSLPVTPGEPASISCRSSQSLLHSNGYNYLDWYLQKPGQSPQLLIYAASTLQSGVPDRFSGSGSGTDFTLKISRVEAEDVGVYYCMQGAHWPPTFGQGTKLEIKR
# notes: IgG1; also called ST2 Antibody 90
# B6: Human ST2 IgG1 Antibody 96 (antibody, V domains shown)
# VH: QVQLVQSGAEVKKPGSSVKVSCKASGFSFSTYGVAWVRQAPGQGLEWMGGFVPIIGSANYAQKFQGRVTITADESTSTAYMELSSLRSEDTAVYYCARDYGGNLDYWGQGTLVTVSS
# VL: B5 VL with T58S, L109V
# notes: IgG1; also called ST2 Antibody 96
# B7: Human ST2 IgG1 Antibody 93 (antibody, V domains shown)
# VH: QVQLVQSGAEVKKPGSSVKVSCKASGGTFSTYAISWVRQAPGQGLEWMGGIIPSFNAPSYAQKFQGRVTITADKSTSTAYMELSSLRSEDTAVYYCARVVPAAIVGWYFDLWGRGTLVTVSS
# VL: B5 VL with S61T, G96A, A97L, H98Q, W99T, L109V
# notes: IgG1; also called ST2 Antibody 93
# B8: Human ST2 IgG1 Antibody 95 (antibody, V domains shown)
# VH: QVQLVQSGAEVKKPGSSVKVSCKASGYTFTSYGISWVRQAPGQGLEWMGGIIPIFGTANYAQKFQGRVTITADESTSTAYMELSSLRSEDTAVYYCARVMARRDGYNFKGGWYFDLWGRGTLVTVSS
# VL: B5 VL with T58S, G96A, A97L, H98E, W99T
# notes: IgG1; also called ST2 Antibody 95
# B9: Human ST2 IgG1 Antibody 83 (antibody, V domains shown)
# VH: EVQLLESGGGLVKPGGSLRLSCAASGFTFSSYWMSWVRQAPGKGLEWVSAIGTAGDTYYPGSVKGRFTISRDDSKNTLYLQMNSLKTEDTAVYYCAILRRDKVWPFDYWGQGTLVTVSS
# VL: DIQMTQSPSSLSASVGDRVTITCRASQSISSHLHWYQQKPGKAPKLLIYAASSLQSGVPSRFSGSGSGTDFTLTISSLQPEDFATYYCQQSYSSPVTFGGGTKVEIKR
# notes: IgG1; also called ST2 Antibody 83
# B10: Human ST2 IgG1 Antibody 99 (antibody, V domains shown)
# VH: EVQLLESGGGLVQPGGSLRLSCAASGFTFSDYYMNWVRQAPGKGLEWVSTISGFGESTFYADSVKGRFTISRDNSKNTLYLQMNSLRAEDTAVYYCARLGAARAFDIWGQGTTVTVSS
# VL: B9 VL with S30G, H32W, L33M, H34A, S53T, S93T, S94T, V96I, G100P, E105D
# notes: IgG1; also called ST2 Antibody 99
# B11: Human ST2 IgG1 Antibody 87 (antibody, V domains shown)
# VH: QVQLVQSGAEVKKPGASVKVSCKASGYTFAGQYMHWVRQAPGQGLEWMGNINPSGGSTSYAQRFQGRVTMTRDTSTSTVYMELSSLRSEDTAVYYCARGDYSETYYYYMDVWGKGTTVTVSS
# VL: B9 VL with S28H, S30N, H32N, H34N, A50G, S93T, S94T, V96F, G100P, E105D
# notes: IgG1; also called ST2 Antibody 87
# B12: Human ST2 IgG1 Antibody 98 (antibody, V domains shown)
# VH: EVQLLESGGGLVKPGGSLRLSCAASGFTFSSYWMSWVRQAPGKGLEWVSAISGTAINTYYADSVKGRFTISRDDSKNTLYLQMNSLKTEDTAVYYCARVRRDSSGGGAFDIWGQGTMVTVSS
# VL: B9 VL with S28G, S31N, H32N, H34N, S56T, S94T, V96P, G100Q
# notes: IgG1; also called ST2 Antibody 98
# B13: Human ST2 IgG1 Antibody 89 (antibody, V domains shown)
# VH: B12 VH
# VL: B9 VL with S28G, S31N, H32N, H34N, S56T, S94T, V96P, G100Q
# notes: IgG1; also called ST2 Antibody 89
# B14: Human ST2 IgG1 Antibody 86 (antibody, V domains shown)
# VH: QVQLVQSGAEVKKPGSSVKVSCKASGGTFSNYAISWVRQAPGQGLEWMGGIIPIFGTANYAQKFQGRVTITADESTSTAYMELSSLRSEDTAVYYCAKDLGGWFNLFDPWGQGTLVTVSS
# VL: EIVMTQSPATLSVSPGERATLSCRASQGVSSYLAWYQQKPGQAPRLLIYGASTRATGIPARFSGSGSGTEFTLTISSLQSEDFAVYYCQQYRSFPLTFGGGTKVEIKR
# notes: IgG1; also called ST2 Antibody 86
# B15: Human ST2 IgG1 Antibody 91 (antibody, V domains shown)
# VH: EVQLLESGGGLVKPGGSLRLSCAASGFTFSSYWMSWVRQAPGKGLEWVSVIYSGGSTYYADSVKGRFTISRDDSKNTLYLQMNSLKTEDTAVYYCARGLGWFDPWGQGTLVTVSS
# VL: DIQMTQSPSSLSASVGDRVTITCQANQHIGNSLNWYQQKPGKAPKLLIFAASRLQSGVPSRFSGSGSGTDFTLTISSLQPEDFATYYCQQSYGTPLTFGGGTKVEIKR
# notes: IgG1; also called ST2 Antibody 91
# B16: Human ST2 IgG1 Antibody 100 (antibody, V domains shown)
# VH: EVQLLESGGGLVQPGGSLRLSCAASGFTFSNYAMAWVRQAPGKGLEWVSWISGSGSYIYYADSVKGRFTISRDNSKNTLYLQMNSLRAEDTAVYYCARRGSSWSNFDYWGQGTLVTVSS
# VL: DIQMTQSPSSLSASVGDRVTITCRASQTISTYLNWYQQKPGKAPKLLIYDASNLETGVPSRFSGSGSGTDFTLTISSLQPEDFATYYCQQSYSTPITFGQGTKVEIKR
# notes: IgG1; also called ST2 Antibody 100
# B17: Human ST2 IgG1 Antibody 94 (antibody, V domains shown)
# VH: QVQLVQSGAEVKKPGSSVKVSCKASGGILNSYAITWVRQAPGQGLEWMGRIIPILGIANYAQKFQGRVTITADESTSTAYMELSSLRSEDTAVYYCVENESGPLFDYWGQGTLVTVSS
# VL: EIVMTQSPATLSVSPGERATLSCRASQSVYSSYLAWYQQKPGQAPRLLIYGTSSRAAGIPARFSGSGSGTEFTLTISSLQSEDFAVYYCQQYYSTPYTFGQGTKVEIKR
# notes: IgG1; also called ST2 Antibody 94
# B18: Human ST2 IgG1 Antibody 9 (antibody, V domains shown)
# VH: EVQLLESGGGLVQPGGSLRLSCAASGFAFSSHWMHWVRQAPGKGLEWVATISSGSHSIHYADSVKGRFTISRDNSKNTLYLQMNSLRAEDTAVYYCAREAGTSYYYYGMDVWGKGTTVTVSS
# VL: B16 VL with R24Q, T28D, S30R, T31N, D50K, N53S, T56S, I96P, Q100G
# notes: IgG1, kappa; also called ST2 Antibody 9
# B19: Human ST2 IgG1 Antibody 16 (antibody, V domains shown)
# VH: QVQLVQSGAEVKKPGASVKVSCKASGYTFTSHYMHWVRQAPGQGLEWMGIINPSGGSTSYAQKFQGRVTMTRDTSTSTVYMELSSLRSEDTAVYYCARAGIGYLAAHDLYYYYGMDVWGRGTLVTVSS
# VL: B14 VL with G28S, Y32N, L33F, R92Y, F94T, L96Y, G100Q
# notes: IgG1, kappa; also called ST2 Antibody 16
# Target: T1, Human ST2
# Experiment: SPR (Carterra), antibody immobilized, ST2 analyte
# Description: (§1) Binding of the reformatted human ST2 antibodies to the human and mouse ST2 proteins was evaluated by surface plasmon resonance (SPR), using a high throughput antibody screening and characterization platform from Carterra (Salt Lake City, Utah).
Kd,koff,kon,Binder
662 nM,0.13 s⁻¹,200000 M⁻¹ s⁻¹,B1
554 nM,0.068 s⁻¹,120000 M⁻¹ s⁻¹,B2
125 nM,0.0019 s⁻¹,15000 M⁻¹ s⁻¹,B3
543 nM,0.13 s⁻¹,240000 M⁻¹ s⁻¹,B4
970 nM,0.17 s⁻¹,170000 M⁻¹ s⁻¹,B5
337 nM,0.097 s⁻¹,290000 M⁻¹ s⁻¹,B6
728 nM,0.11 s⁻¹,150000 M⁻¹ s⁻¹,B7
446 nM,0.0086 s⁻¹,19000 M⁻¹ s⁻¹,B8
70 nM,0.018 s⁻¹,260000 M⁻¹ s⁻¹,B9
192 nM,0.089 s⁻¹,460000 M⁻¹ s⁻¹,B10
642 nM,0.018 s⁻¹,27000 M⁻¹ s⁻¹,B11
95 nM,0.025 s⁻¹,270000 M⁻¹ s⁻¹,B12
102 nM,0.024 s⁻¹,240000 M⁻¹ s⁻¹,B13
41 nM,0.029 s⁻¹,720000 M⁻¹ s⁻¹,B14
256 nM,0.041 s⁻¹,160000 M⁻¹ s⁻¹,B15
342 nM,0.074 s⁻¹,220000 M⁻¹ s⁻¹,B16
483 nM,0.062 s⁻¹,130000 M⁻¹ s⁻¹,B17

# Target: T2, Mouse ST2
# Experiment: SPR (Carterra), antibody immobilized, ST2 analyte, 1:1
# Description: as §1
Kd,koff,kon,Binder
351 nM,0.032 s⁻¹,91000 M⁻¹ s⁻¹,B18
315 nM,0.1 s⁻¹,320000 M⁻¹ s⁻¹,B19
